Laboratory results as given in patent US20200079833A1 (AstraZeneca / MedImmune, published 2020).
Starred links: 1 amine or outer side, 2 acyl side, 3 side chain; linkers in the order of their positions; H or OH if unused. Non-standard residues stand in square brackets, D forms with d. Groups on a side chain read outwards from the residue. Primed or numbered codes have the meaning given here. No end group written: not given here. *: point of attachment. γGlu = O=C(O)[C@H](CCC(=O)[*:2])N[*:1]; Palmitoyl = CCCCCCCCCCCCCCCC(=O)*; αMeF = C[C@](N)(Cc1ccccc1)C(=O)O; αMeK = C[C@](N)(CCCCN)C(=O)O; Lauroyl = CCCCCCCCCCCC(=O)*; αMeS = C[C@](N)(CO)C(=O)O; PEG2′ = not defined here; Aib = CC(C)(N)C(=O)O

T1: glucose-dependent insulinotropic peptide (gastric inhibitory polypeptide) receptor (human, UniProt P48546 22-466)
T1 sequence (looked up): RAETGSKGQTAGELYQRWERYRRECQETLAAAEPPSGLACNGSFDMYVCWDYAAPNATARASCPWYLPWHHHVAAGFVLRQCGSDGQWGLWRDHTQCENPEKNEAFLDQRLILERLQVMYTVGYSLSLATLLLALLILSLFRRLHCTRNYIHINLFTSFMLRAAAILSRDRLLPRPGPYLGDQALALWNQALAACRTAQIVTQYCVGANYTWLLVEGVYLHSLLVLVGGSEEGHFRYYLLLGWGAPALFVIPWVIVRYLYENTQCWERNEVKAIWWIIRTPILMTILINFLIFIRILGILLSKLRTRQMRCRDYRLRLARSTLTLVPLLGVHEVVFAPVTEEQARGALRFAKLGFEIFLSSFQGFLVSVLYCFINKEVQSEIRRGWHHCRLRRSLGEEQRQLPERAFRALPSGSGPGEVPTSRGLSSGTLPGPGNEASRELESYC

T2: glucose-dependent insulinotropic peptide (gastric inhibitory polypeptide) receptor (GIPR), primary cAMP assay … (human, UniProt P48546 22-466)
T2 sequence (looked up): T1 sequence (looked up)

B1: SEQ ID NO 13 (peptide)
peptide: H[Aib]QGS[αMeF]TSDK([γGlu-Palmitoyl])SE[αMeF]LDSERARD[αMeF]VA[αMeF]LEAGG-NH2
modifications: N-terminus assumed
SMILES: CCCCCCCCCCCCCCCC(=O)N[C@@H](CCC(=O)NCCCC[C@H](NC(=O)[C@H](CC(=O)O)NC(=O)[C@H](CO)NC(=O)[C@@H](NC(=O)[C@](C)(Cc1ccccc1)NC(=O)[C@H](CO)NC(=O)CNC(=O)[C@H](CCC(N)=O)NC(=O)C(C)(C)NC(=O)[C@@H](N)Cc1c[nH]cn1)[C@@H](C)O)C(=O)N[C@@H](CO)C(=O)N[C@@H](CCC(=O)O)C(=O)N[C@@](C)(Cc1ccccc1)C(=O)N[C@@H](CC(C)C)C(=O)N[C@@H](CC(=O)O)C(=O)N[C@@H](CO)C(=O)N[C@@H](CCC(=O)O)C(=O)N[C@@H](CCCNC(=N)N)C(=O)N[C@@H](C)C(=O)N[C@@H](CCCNC(=N)N)C(=O)N[C@@H](CC(=O)O)C(=O)N[C@@](C)(Cc1ccccc1)C(=O)N[C@H](C(=O)N[C@@H](C)C(=O)N[C@@](C)(Cc1ccccc1)C(=O)N[C@@H](CC(C)C)C(=O)N[C@@H](CCC(=O)O)C(=O)N[C@@H](C)C(=O)NCC(=O)NCC(N)=O)C(C)C)C(=O)O
B2: SEQ ID NO 15 (peptide)
peptide: Y[Aib]EGS[αMeF]ISD[αMeF]SIAMDKIHQQD[αMeF]VN[αMeF]LLAQK-NH2
modifications: N-terminus assumed
SMILES: CC[C@H](C)[C@H](NC(=O)[C@H](CO)NC(=O)[C@](C)(Cc1ccccc1)NC(=O)[C@H](CC(=O)O)NC(=O)[C@H](CO)NC(=O)[C@@H](NC(=O)[C@](C)(Cc1ccccc1)NC(=O)[C@H](CO)NC(=O)CNC(=O)[C@H](CCC(=O)O)NC(=O)C(C)(C)NC(=O)[C@@H](N)Cc1ccc(O)cc1)[C@@H](C)CC)C(=O)N[C@@H](C)C(=O)N[C@@H](CCSC)C(=O)N[C@@H](CC(=O)O)C(=O)N[C@@H](CCCCN)C(=O)N[C@H](C(=O)N[C@@H](Cc1c[nH]cn1)C(=O)N[C@@H](CCC(N)=O)C(=O)N[C@@H](CCC(N)=O)C(=O)N[C@@H](CC(=O)O)C(=O)N[C@@](C)(Cc1ccccc1)C(=O)N[C@H](C(=O)N[C@@H](CC(N)=O)C(=O)N[C@@](C)(Cc1ccccc1)C(=O)N[C@@H](CC(C)C)C(=O)N[C@@H](CC(C)C)C(=O)N[C@@H](C)C(=O)N[C@@H](CCC(N)=O)C(=O)N[C@@H](CCCCN)C(N)=O)C(C)C)[C@@H](C)CC
B3: SEQ ID NO 16 (peptide)
peptide: H[Aib]EGS[αMeF]T[αMeS]DVSS[αMeF]LEGEAA[αMeK]E[αMeF]IA[αMeF]VV[αMeK]GG-NH2
modifications: N-terminus assumed
SMILES: CC[C@H](C)[C@H](NC(=O)[C@](C)(Cc1ccccc1)NC(=O)[C@H](CCC(=O)O)NC(=O)[C@](C)(CCCCN)NC(=O)[C@H](C)NC(=O)[C@H](C)NC(=O)[C@H](CCC(=O)O)NC(=O)CNC(=O)[C@H](CCC(=O)O)NC(=O)[C@H](CC(C)C)NC(=O)[C@](C)(Cc1ccccc1)NC(=O)[C@H](CO)NC(=O)[C@H](CO)NC(=O)[C@@H](NC(=O)[C@H](CC(=O)O)NC(=O)[C@](C)(CO)NC(=O)[C@@H](NC(=O)[C@](C)(Cc1ccccc1)NC(=O)[C@H](CO)NC(=O)CNC(=O)[C@H](CCC(=O)O)NC(=O)C(C)(C)NC(=O)[C@@H](N)Cc1c[nH]cn1)[C@@H](C)O)C(C)C)C(=O)N[C@@H](C)C(=O)N[C@@](C)(Cc1ccccc1)C(=O)N[C@H](C(=O)N[C@H](C(=O)N[C@@](C)(CCCCN)C(=O)NCC(=O)NCC(N)=O)C(C)C)C(C)C
B4: SEQ ID NO 14 (peptide)
peptide: H[Aib]QGS[αMeF]TSD[αMeF]SK[αMeF]LDSRRAQD[αMeF]VQ[αMeF]LMNT-NH2
modifications: N-terminus assumed
SMILES: CSCC[C@H](NC(=O)[C@H](CC(C)C)NC(=O)[C@](C)(Cc1ccccc1)NC(=O)[C@H](CCC(N)=O)NC(=O)[C@@H](NC(=O)[C@](C)(Cc1ccccc1)NC(=O)[C@H](CC(=O)O)NC(=O)[C@H](CCC(N)=O)NC(=O)[C@H](C)NC(=O)[C@H](CCCNC(=N)N)NC(=O)[C@H](CCCNC(=N)N)NC(=O)[C@H](CO)NC(=O)[C@H](CC(=O)O)NC(=O)[C@H](CC(C)C)NC(=O)[C@](C)(Cc1ccccc1)NC(=O)[C@H](CCCCN)NC(=O)[C@H](CO)NC(=O)[C@](C)(Cc1ccccc1)NC(=O)[C@H](CC(=O)O)NC(=O)[C@H](CO)NC(=O)[C@@H](NC(=O)[C@](C)(Cc1ccccc1)NC(=O)[C@H](CO)NC(=O)CNC(=O)[C@H](CCC(N)=O)NC(=O)C(C)(C)NC(=O)[C@@H](N)Cc1c[nH]cn1)[C@@H](C)O)C(C)C)C(=O)N[C@@H](CC(N)=O)C(=O)N[C@H](C(N)=O)[C@@H](C)O

These binders were tested against GLP-1 receptor (human, UniProt P43220 24-463) (assay: cell-based or functional assay).

Row | Primary assay EC50 (cAMP), Mean pM GLP-1R [pM] | Primary assay EC50 (cAMP), n1 [nM] | Primary assay EC50 (cAMP), n2 [nM] | Binder
1 | 16 | 0.022 | 0.0096 | B1
2 | 119000 | 120 | 120 | B2
3 | 10100 | 11 | 9.4 | B3
4 | 2440 | 3.1 | 1.8 | B4

What follows are binders tested against glucagon receptor (human, UniProt P47871 26-477) (assay: cell-based or functional assay).
Chain of glucagon receptor (P47871 26-477): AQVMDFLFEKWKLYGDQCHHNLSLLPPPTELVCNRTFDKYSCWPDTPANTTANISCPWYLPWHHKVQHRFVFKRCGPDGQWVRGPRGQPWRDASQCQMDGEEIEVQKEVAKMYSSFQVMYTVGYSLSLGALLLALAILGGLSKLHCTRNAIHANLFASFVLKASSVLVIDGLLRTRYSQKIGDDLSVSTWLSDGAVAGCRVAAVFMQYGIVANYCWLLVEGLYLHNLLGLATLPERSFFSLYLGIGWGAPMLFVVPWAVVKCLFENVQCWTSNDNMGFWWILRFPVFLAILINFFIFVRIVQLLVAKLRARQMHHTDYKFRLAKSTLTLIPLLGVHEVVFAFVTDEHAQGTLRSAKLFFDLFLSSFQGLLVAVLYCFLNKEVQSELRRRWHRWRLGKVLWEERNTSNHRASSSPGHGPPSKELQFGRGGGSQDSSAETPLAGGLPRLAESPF

Row | Primary assay EC50 (cAMP), n1 [nM] | Primary assay EC50 (cAMP), n2 [nM] | Binder
5 | 7.6 | 4.1 | B1
6 | 120 | 120 | B2
7 | 100 | 100 | B3
8 | 3 | 1.1 | B4

What follows are binders tested against T1, glucose-dependent insulinotropic … (assay: cell-based or functional assay).

Row | Primary assay EC50 (cAMP), n1 [nM] | Primary assay EC50 (cAMP), n2 [nM] | Binder
9 | 0.69 | 0.63 | B1
10 | 0.16 | 0.079 | B2
11 | 100 | 100 | B3
12 | 15 | 19 | B4

These binders were tested against GLP-1 receptor (GLP-1R), primary cAMP assay cell line (human, UniProt P43220 24-463) (assay: cell-based or functional assay).

Row | cAMP Primary assay EC50, Mean pM GLP-1R [pM] | cAMP Primary assay EC50, n1 [pM] | cAMP Primary assay EC50, n2 [pM] | Binder
13 | 97 | 59.9 | 134 | H[Aib]EGS[αMeF]TSDK([PEG2′-PEG2′-γGlu-Lauroyl])SSYLEK([PEG2′-PEG2′-γGlu-Lauroyl])EAA[αMeK]EFIK([PEG2′-PEG2′-γGlu-Lauroyl])FVVEGG-NH2 [SEQ ID NO: 439]
14 | 176 | 110 | 241 | H[Aib]EGS[αMeF]TSDK([PEG2′-PEG2′-γGlu-Lauroyl])SSYLEGEK([PEG2′-PEG2′-γGlu-Lauroyl])A[αMeK]EFIK([PEG2′-PEG2′-γGlu-Lauroyl])FVVEGG-NH2 [SEQ ID NO: 441]
15 | 130 | 96.7 | 164 | H[Aib]EGS[αMeF]TSDK([PEG2′-PEG2′-γGlu-Lauroyl])SSYLEGK([PEG2′-PEG2′-γGlu-Lauroyl])AA[αMeK]EFIK([PEG2′-PEG2′-γGlu-Lauroyl])FVVEGG-NH2 [SEQ ID NO: 440]

What follows are binders tested against glucagon receptor (GCGR), primary cAMP assay cell line (human, UniProt P47871 26-477) (assay: cell-based or functional assay).
Chain of glucagon receptor (GCGR), primary cAMP assay cell line (P47871 26-477): as above

Row | cAMP Primary assay EC50, n1 [nM] | cAMP Primary assay EC50, n2 [nM] | Binder
16 | 19.5 | 19.5 | H[Aib]EGS[αMeF]TSDK([PEG2′-PEG2′-γGlu-Lauroyl])SSYLEK([PEG2′-PEG2′-γGlu-Lauroyl])EAA[αMeK]EFIK([PEG2′-PEG2′-γGlu-Lauroyl])FVVEGG-NH2 [SEQ ID NO: 439]
17 | 19.5 | 19.5 | H[Aib]EGS[αMeF]TSDK([PEG2′-PEG2′-γGlu-Lauroyl])SSYLEGEK([PEG2′-PEG2′-γGlu-Lauroyl])A[αMeK]EFIK([PEG2′-PEG2′-γGlu-Lauroyl])FVVEGG-NH2 [SEQ ID NO: 441]
18 | 19.7 | 19.7 | H[Aib]EGS[αMeF]TSDK([PEG2′-PEG2′-γGlu-Lauroyl])SSYLEGK([PEG2′-PEG2′-γGlu-Lauroyl])AA[αMeK]EFIK([PEG2′-PEG2′-γGlu-Lauroyl])FVVEGG-NH2 [SEQ ID NO: 440]

The binders below were run against T2, glucose-dependent insulinotropic … (assay: cell-based or functional assay).

Row | cAMP Primary assay EC50, n1 [nM] | cAMP Primary assay EC50, n2 [nM] | Binder
19 | 19.5 | 19.5 | H[Aib]EGS[αMeF]TSDK([PEG2′-PEG2′-γGlu-Lauroyl])SSYLEK([PEG2′-PEG2′-γGlu-Lauroyl])EAA[αMeK]EFIK([PEG2′-PEG2′-γGlu-Lauroyl])FVVEGG-NH2 [SEQ ID NO: 439]
20 | 19.5 | 19.5 | H[Aib]EGS[αMeF]TSDK([PEG2′-PEG2′-γGlu-Lauroyl])SSYLEGEK([PEG2′-PEG2′-γGlu-Lauroyl])A[αMeK]EFIK([PEG2′-PEG2′-γGlu-Lauroyl])FVVEGG-NH2 [SEQ ID NO: 441]
21 | 19.7 | 19.7 | H[Aib]EGS[αMeF]TSDK([PEG2′-PEG2′-γGlu-Lauroyl])SSYLEGK([PEG2′-PEG2′-γGlu-Lauroyl])AA[αMeK]EFIK([PEG2′-PEG2′-γGlu-Lauroyl])FVVEGG-NH2 [SEQ ID NO: 440]
